Source: patent publication US7407939B2, “Protein kinase inhibitors comprising ATP mimetics conjugated to peptides or peptidomimetics” (CureGenics Ltd., priority 2001, dated 2008)
Where no end group is shown, it is not given here. [ ]: non-standard residue; d: D form. The star is where a group is joined. X1 = 5‑aminoethylsulfonamide isoquinoline, O=S(=O)(NCCN*)c1cccc2cnccc12; hLeu = CC(C)CC[C@H](N)C(=O)O; Nle = CCCC[C@H](N)C(=O)O; Orn = NCCC[C@H](N)C(=O)O; Dab = NCC[C@H](N)C(=O)O; Nva = CCC[C@H](N)C(=O)O; Abu = CC[C@H](N)C(=O)O; Dap = NC[C@H](N)C(=O)O

Target: T1, PKB (Homo sapiens, UniProt P31749)
T1 construct: His; HA; made in house
T1 sequence (P31749 whole entry, species assumed): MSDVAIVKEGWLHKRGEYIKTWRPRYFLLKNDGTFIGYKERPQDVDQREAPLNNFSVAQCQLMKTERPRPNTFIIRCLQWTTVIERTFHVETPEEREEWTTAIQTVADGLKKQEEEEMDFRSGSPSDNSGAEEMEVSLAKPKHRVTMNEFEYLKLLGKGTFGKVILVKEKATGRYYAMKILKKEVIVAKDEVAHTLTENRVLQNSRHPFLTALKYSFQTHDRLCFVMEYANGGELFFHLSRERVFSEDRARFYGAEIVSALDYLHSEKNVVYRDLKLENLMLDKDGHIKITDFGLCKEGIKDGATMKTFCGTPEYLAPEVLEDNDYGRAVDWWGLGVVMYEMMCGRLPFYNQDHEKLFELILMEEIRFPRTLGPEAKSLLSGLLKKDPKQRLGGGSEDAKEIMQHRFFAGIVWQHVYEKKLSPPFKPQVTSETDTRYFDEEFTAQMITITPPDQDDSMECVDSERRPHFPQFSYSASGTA
Assay: PKB in vitro kinase activity assay (soluble His-HA-PKB / SPA bead screening)
Format: biochemical
Conditions: 1 μM compound concentration, Assay 1

PKB-kinase (spa) Assay 1, % inhibition of kinase activity	Substance
34%	60020-4: Arg-Pro-Arg-Dap-Glu(5-aminoethylsulfonamide isoquinoline)-Orn-Hol (RPR[Dap]E(X1)[Orn][hLeu])
46%	60020-5: Arg-Pro-Arg-Dap-Glu(5-aminoethylsulfonamide isoquinoline)-Ala-Phe (RPR[Dap]E(X1)AF)
32%	60020-6: Arg-Pro-Arg-Dap-Glu(5-aminoethylsulfonamide isoquinoline)-Ala-Hol (RPR[Dap]E(X1)A[hLeu])
18%	60020-8: Arg-Pro-Arg-Dap-Glu(5-aminoethylsulfonamide isoquinoline)-Nva-Hol (RPR[Dap]E(X1)[Nva][hLeu])
23%	60020-12: Arg-Pro-Arg-Orn-Glu(5-aminoethylsulfonamide isoquinoline)-Orn-Hol (RPR[Orn]E(X1)[Orn][hLeu])
36%	60020-13: Arg-Pro-Arg-Orn-Glu(5-aminoethylsulfonamide isoquinoline)-Ala-Phe (RPR[Orn]E(X1)AF)
26%	60020-14: Arg-Pro-Arg-Orn-Glu(5-aminoethylsulfonamide isoquinoline)-Ala-Hol (RPR[Orn]E(X1)A[hLeu])
31%	60020-15: Arg-Pro-Arg-Orn-Glu(5-aminoethylsulfonamide isoquinoline)-Nva-Phe (RPR[Orn]E(X1)[Nva]F)
5%	60020-16: Arg-Pro-Arg-Orn-Glu(5-aminoethylsulfonamide isoquinoline)-Nva-Hol (RPR[Orn]E(X1)[Nva][hLeu])
34%	60020-17: Arg-Pro-Arg-Abu-Glu(5-aminoethylsulfonamide isoquinoline)-Dab-Phe (RPR[Abu]E(X1)[Dab]F)
18%	60020-18: Arg-Pro-Arg-Abu-Glu(5-aminoethylsulfonamide isoquinoline)-Dab-Hol (RPR[Abu]E(X1)[Dab][hLeu])
32%	60020-19: Arg-Pro-Arg-Abu-Glu(5-aminoethylsulfonamide isoquinoline)-Orn-Phe (RPR[Abu]E(X1)[Orn]F)
11%	60020-20: Arg-Pro-Arg-Abu-Glu(5-aminoethylsulfonamide isoquinoline)-Orn-Hol (RPR[Abu]E(X1)[Orn][hLeu])
−2%	60020-21: Arg-Pro-Arg-Abu-Glu(5-aminoethylsulfonamide isoquinoline)-Ala-Phe (RPR[Abu]E(X1)AF)
−5%	60020-22: Arg-Pro-Arg-Abu-Glu(5-aminoethylsulfonamide isoquinoline)-Ala-Hol (RPR[Abu]E(X1)A[hLeu])
−3%	60020-23: Arg-Pro-Arg-Abu-Glu(5-aminoethylsulfonamide isoquinoline)-Nva-Phe (RPR[Abu]E(X1)[Nva]F)
−17%	60020-24: Arg-Pro-Arg-Abu-Glu(5-aminoethylsulfonamide isoquinoline)-Nva-Hol (RPR[Abu]E(X1)[Nva][hLeu])
17%	60020-26: Arg-Pro-Arg-Nle-Glu(5-aminoethylsulfonamide isoquinoline)-Dab-Hol (RPR[Nle]E(X1)[Dab][hLeu])
63%	60020-27: Arg-Pro-Arg-Nle-Glu(5-aminoethylsulfonamide isoquinoline)-Orn-Phe (RPR[Nle]E(X1)[Orn]F)
27%	60020-28: Arg-Pro-Arg-Nle-Glu(5-aminoethylsulfonamide isoquinoline)-Orn-Hol (RPR[Nle]E(X1)[Orn][hLeu])
19%	60020-29: Arg-Pro-Arg-Nle-Glu(5-aminoethylsulfonamide isoquinoline)-Ala-Phe (RPR[Nle]E(X1)AF)

Same assay, conditions: 1 μM compound concentration, Assay 2

PKB-kinase (spa) Assay 2, % inhibition of kinase activity	Substance
53%	60020-4: Arg-Pro-Arg-Dap-Glu(5-aminoethylsulfonamide isoquinoline)-Orn-Hol (RPR[Dap]E(X1)[Orn][hLeu])
26%	60020-5: Arg-Pro-Arg-Dap-Glu(5-aminoethylsulfonamide isoquinoline)-Ala-Phe (RPR[Dap]E(X1)AF)
14%	60020-6: Arg-Pro-Arg-Dap-Glu(5-aminoethylsulfonamide isoquinoline)-Ala-Hol (RPR[Dap]E(X1)A[hLeu])
0%	60020-8: Arg-Pro-Arg-Dap-Glu(5-aminoethylsulfonamide isoquinoline)-Nva-Hol (RPR[Dap]E(X1)[Nva][hLeu])
3%	60020-12: Arg-Pro-Arg-Orn-Glu(5-aminoethylsulfonamide isoquinoline)-Orn-Hol (RPR[Orn]E(X1)[Orn][hLeu])
29%	60020-13: Arg-Pro-Arg-Orn-Glu(5-aminoethylsulfonamide isoquinoline)-Ala-Phe (RPR[Orn]E(X1)AF)
31%	60020-14: Arg-Pro-Arg-Orn-Glu(5-aminoethylsulfonamide isoquinoline)-Ala-Hol (RPR[Orn]E(X1)A[hLeu])
44%	60020-15: Arg-Pro-Arg-Orn-Glu(5-aminoethylsulfonamide isoquinoline)-Nva-Phe (RPR[Orn]E(X1)[Nva]F)
37%	60020-16: Arg-Pro-Arg-Orn-Glu(5-aminoethylsulfonamide isoquinoline)-Nva-Hol (RPR[Orn]E(X1)[Nva][hLeu])
38%	60020-17: Arg-Pro-Arg-Abu-Glu(5-aminoethylsulfonamide isoquinoline)-Dab-Phe (RPR[Abu]E(X1)[Dab]F)
28%	60020-18: Arg-Pro-Arg-Abu-Glu(5-aminoethylsulfonamide isoquinoline)-Dab-Hol (RPR[Abu]E(X1)[Dab][hLeu])
26%	60020-19: Arg-Pro-Arg-Abu-Glu(5-aminoethylsulfonamide isoquinoline)-Orn-Phe (RPR[Abu]E(X1)[Orn]F)
15%	60020-20: Arg-Pro-Arg-Abu-Glu(5-aminoethylsulfonamide isoquinoline)-Orn-Hol (RPR[Abu]E(X1)[Orn][hLeu])
6%	60020-21: Arg-Pro-Arg-Abu-Glu(5-aminoethylsulfonamide isoquinoline)-Ala-Phe (RPR[Abu]E(X1)AF)
−2%	60020-22: Arg-Pro-Arg-Abu-Glu(5-aminoethylsulfonamide isoquinoline)-Ala-Hol (RPR[Abu]E(X1)A[hLeu])
−8%	60020-23: Arg-Pro-Arg-Abu-Glu(5-aminoethylsulfonamide isoquinoline)-Nva-Phe (RPR[Abu]E(X1)[Nva]F)
−12%	60020-24: Arg-Pro-Arg-Abu-Glu(5-aminoethylsulfonamide isoquinoline)-Nva-Hol (RPR[Abu]E(X1)[Nva][hLeu])
18%	60020-26: Arg-Pro-Arg-Nle-Glu(5-aminoethylsulfonamide isoquinoline)-Dab-Hol (RPR[Nle]E(X1)[Dab][hLeu])
25%	60020-27: Arg-Pro-Arg-Nle-Glu(5-aminoethylsulfonamide isoquinoline)-Orn-Phe (RPR[Nle]E(X1)[Orn]F)
31%	60020-28: Arg-Pro-Arg-Nle-Glu(5-aminoethylsulfonamide isoquinoline)-Orn-Hol (RPR[Nle]E(X1)[Orn][hLeu])
39%	60020-29: Arg-Pro-Arg-Nle-Glu(5-aminoethylsulfonamide isoquinoline)-Ala-Phe (RPR[Nle]E(X1)AF)
